# Source: publication PMC4003909 (Structure (London, England : 1993), 2013)
# Assays:
# [1] = molecular target: T1, BCORL1 PUFD (1594-1711) with METR leader, co-expressed and purified with PCGF1 RAWUL (human, UniProt Q5H9F3-1 1594-1711); assay: AUC
# T1 sequence: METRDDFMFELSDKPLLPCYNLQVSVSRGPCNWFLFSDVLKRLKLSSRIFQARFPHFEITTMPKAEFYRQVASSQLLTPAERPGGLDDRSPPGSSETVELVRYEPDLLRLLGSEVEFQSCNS
# [2] = molecular target: BCOR PUFD (1634-1748) with METR leader, co-expressed and purified with PCGF1 RAWUL (human, UniProt Q6W2J9 1634-1748); assay: AUC
binder,measurement,setting,value
"PCGF1 RAWUL (167-255), co-expressed and purified with a PUFD (domain or fragment, human, UniProt Q9BSM1 167-255, looked up) EQLNLCLERLSSGKDKNKSVLQNKYVRCSVRAEVRHLRRVLCHRLMLNPQHVQLLFDNEVLPDHMTMKQIWLSRWFGKPSPLLLQYSVK",Kd,[1],< 8.5 µM
same,Kd,[2],< 8.5 µM
